We go through 4 molecules from patent publication US11630109B2, “Sensors and assays for ubiquitin or ubiquitin-like proteins” (Colorado State University Research Foundation, priority 2013, dated 2023).

Format in all cases: binding
For test [1], the target named is T1, Nedd8 (Homo sapiens, UniProt Q15843). The test can be described thus: Fluorescence intensity titration of Atto532-tIV with free Nedd8. The procedure: FIG. 22 provides a graph showing that Atto532-tagged tIV L1 Cys binds to free Nedd8 with a Kd of several μM.
Increasing concentrations of free Nedd8 protein were added to Atto532-tIV, and the fluorescence intensity was measured (see FIG. 22).

The target of test [2] is T1, Nedd8. Kind of test: tSR competition assay with Atto532-tagged ubiquitin, relative fluorescence. Particulars: 5 nM Atto532-tagged ubiquitin protein and 600 nM tSR. The procedure: A competition assay was performed where unconjugated free ubiquitin proteins, different kinds of conjugated free ubiquitin proteins, and Nedd8 were added to mixtures of 5 nM Atto532-tagged ubiquitin protein and 600 nM tSR. The relative fluorescence was measured. […] The Ki values for unconjugated ubiquitin proteins and the different kinds of conjugated free ubiquitin proteins are provided in a table (bottom).
The binding affinities of tSR were determined (see FIG. 25). A competition assay was performed where free ubiquitin proteins, different kinds of conjugated free ubiquitin proteins, and Nedd8 were added to mixtures of 5 nM Atto532-tagged ubiquitin protein and 600 nM tSR. The relative fluorescence was measured. […] The Ki values for unconjugated ubiquitin proteins and the different kinds of conjugated free ubiquitin proteins are provided in a table (see FIG. 25).

In test [3] the target is T1, Nedd8. The test can be described thus: Direct titration of Alexa488-tagged tSR, relative fluorescence. Particulars: 10 nM Alexa488 tSR. The procedure: (§1) The relative fluorescence intensity changes of Alexa488-tagged tSR when ubiquitin is added is shown (middle). The relative fluorescence of 10 nM Alexa488 tSR when different concentrations of unconjugated ubiquitin protein, conjugated ubiquitin protein, or Nedd8 are added (right).
(§2) The tSR can be used for direct titration experiments (see FIG. 26). The relative fluorescence intensity changes of Alexa488-tagged tSR when ubiquitin is added at varying concentrations. The relative fluorescence of 10 nM Alexa488 tSR was measured with different concentrations of unconjugated ubiquitin protein, conjugated ubiquitin protein, or Nedd8.

Test [4] deals with conjugated ubiquitin protein. The test is described as above. The settings on record: 10 nM Alexa488 tSR. The procedure: as §1, §2
For test [5], the target named is unconjugated ubiquitin protein (Homo sapiens, UniProt P0CG48). Described as above. Particulars: 10 nM Alexa488 tSR. The procedure:
as §1, §2

T1 sequence (Q15843 1-76 limits assumed): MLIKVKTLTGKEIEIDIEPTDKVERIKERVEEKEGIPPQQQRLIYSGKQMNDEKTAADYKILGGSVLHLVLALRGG

B1: tIV: chimeric protein with two ubiquitin binding domains, IsoT ZnF and Vps27 UIM, SEQ ID NO: 5 (protein)
chain: MGSSHHHHHHSSGLVPRGSHMKQEVQAWDGEVRQVSKHAFSLKQLDNPARIPPSGWKCSKCDMRENLWLNLTDGSILCGRRYFDGSGGNNHAVEHYRETGYPLAVKLGTITPDGADVWSYDEDDMVLDPSLAEHLSHFGIDMLKMQKGSCAAAEEAELDLKAAIQESLREA
modifications: tIV - Atto532-tagged chimeric polypeptide comprising two binding domains that bind ubiquitin in non-overlapping regions
In the case of B1, the “binding affinity for free Nedd8 protein compared with conjugated Nedd8 protein” value with Nedd8 [1] (predicted from binding interactions of Vps27UIM and Nedd8) is “greater binding affinity”.

B2: Atto532-tagged tIV L1 Cys: tIV L1 Cys (SEQ ID NO: 5) tagged with Atto532 fluorophore at the linker Cys (conjugate)
chain: MGSSHHHHHHSSGLVPRGSHMKQEVQAWDGEVRQVSKHAFSLKQLDNPARIPPSGWKCSKCDMRENLWLNLTDGSILCGRRYFDGSGGNNHAVEHYRETGYPLAVKLGTITPDGADVWSYDEDDMVLDPSLAEHLSHFGIDMLKMQKGSCAAAEEAELDLKAAIQESLREA
modifications: Atto532 fluorophore on linker Cys; tIV - Atto532-tagged chimeric polypeptide comprising two binding domains that bind ubiquitin in non-overlapping regions
Turning to B2, the “KD for Nedd8” value with Nedd8 [1] (free Nedd8 added to Atto532-tIV, fluorescence intensity) is given as “several”.

B3: tSR: universal chimeric polypeptide sensor, SEQ ID NO: 7: S5a UIM and Ruz domains connected by a linker (protein)
chain: MPSSHHHHHHSSGLVPRGSHMTEEEQIAYAMQMSLREAGGGSDLLCKKGCGYYGNPAWQGFCSKCWREEAHKCAAERAAAE
modifications: tSR - chimeric polypeptide comprising two binding domains that bind ubiquitin in non-overlapping regions
For B3, in the test with Nedd8 [2], the “specificity against Nedd8” value is on record as “specificity against Nedd8”.

B4: Alexa488-tagged tSR: tSR tagged with Alexa488 fluorophore (conjugate)
chain: MPSSHHHHHHSSGLVPRGSHMTEEEQIAYAMQMSLREAGGGSDLLCKKGCGYYGNPAWQGFCSKCWREEAHKCAAERAAAE
For the molecule B4, in the test with Nedd8 [3], the “binding of Nedd8 protein” value is recorded as “but not Nedd8 protein”. Besides, in test [4], the “binding of conjugated ubiquitin protein” value is “detected”. For the same molecule, in test [5], the “binding of unconjugated ubiquitin protein” value was “detected”.
